Entries after “also recorded” stand apart in the source; their conditions may differ.
Experiments:
[1] = test system: PDK1; experiment: Protein kinase activity assay, PDK1; assay type: biochemical, human; conditions: PDK1 wt / PDK1 50-359
Experimental: For the expression and purification of protein kinases fused to GST, pEBG-2T derived plasmids were transfected into 8×14.5 cm dishes containing HEK293 cells using the PEI method ([…] and […]/14.5 cm dish). The cells were lysed after 48 h in a buffer containing 50 mM Tris-HCl pH 7.5, 1 mM EGTA, 1 mM EDTA, 1% (w/v) Triton X-100, 1 mM sodium orthovanadate, […], 5 mM sodium pyrophosphate, 0.27 M sucrose, 0.1% β-mercaptoethanol, and 1 tablet of protease inhibitor cocktail per 50 ml of buffer. Lysates were frozen in liquid nitrogen and kept at −80° C. until required. Purification involved incubation of the cleared lysate with glutathione sepharose, followed by 2 washes with 0.5 M NaCl in lysis buffer, 8 washes with a buffer containing 50 mM Tris-HCl, 0.1 mM EGTA and 0.1% β-mercaptoethanol (buffer A), and a last wash with buffer A supplemented with 0.26 M sucrose. Elution was performed with this last buffer containing 20 mM glutathione and the GST-fusion protein was cleared from resin by filtration through a “SigmaPrep” spin column (Sigma). GST-fusion proteins were aliquoted, snap frozen in liquid nitrogen and kept at −80° C. until use. Purity at this stage was above 85% as estimated by SDS-PAGE and staining with Coomassie Brilliant Blue R250. PRK2 was expressed from pEBG-2T-PRK2 (Balendran, A. et al. J Biol Chem 275, 20806-13. (2000)), SGK1 from pEBG-2T-SGK1-ΔN[Ser422Asp], PKBα from pEBG-2T-PKBα[Ser473Asp] (Biondi et al., D. R. Embo J 20, 4380-90. (2001)), PKCl from pEBG-2T-PKCl and PKCζ from pEBG-2T-PKCζ. PDK1 and S6K1 were expressed in Sf9 insect cells using a baculovirus expression system from pFastBac-PDK1 and pFastBac-56K1-T2[Thr412Glu].
The protein kinase activity assays were performed essentially as previously described (Engel, M. et al. Embo J 25, 5469-80 (2006)). The assays were done in a 96-well format and 4 μl aliquots spotted on P81 phospho-cellulose papers (Whatman) using epMotion 5070 (Eppendorf), washed in 0.01% phosphoric acid, dried, and then exposed and analyzed using PhosphoImager technology (FLA-9000 Starion, Fujifilm). Atypical PKC (aPKC) activity assays were performed in a total volume of 20 μl containing 50 mM Tris-HCl pH 7.5, 0.05 mg/ml BSA, 0.1% (v/v) 2-mercaptoethanol, 10 mM MgCl2, 100 μM [γ^32P]ATP (5-50 cpm/pmol), 0.003% Brij, 30-50 ng of aPKC, and MBP (10 μM) or PSRtide (100 μM) as the substrate. After 15 min pre-incubation, the kinase reaction was started by addition of 6 μl of an ATP-Mg mix. When required, lipid activator (LA) phosphatidylserine (100 ng) or PKC lipid activator mix (1×) was included in the pre-incubation. Low basal activity and consistent activation of 1-592 PKCζ and 498 PKCζ by LA was obtained when the pre-incubation time was started by addition of the whole mix on the enzyme.
The substrates were T308tide (200 μM) for PDK1, Kemptide (100 μM) for PKA, and Crosstide (100 μM) for SGK, PKB, S6K, and PRK2. The activity assays for PKCα, β, θ, and δ were performed in the presence of PKC lipid activator mix (1×) using 3 μM of histone H1 as substrate.
The activity assays were performed in duplicates or triplicates (in the case of the temperature stability assay) with less than 10% difference between the duplicate pairs. The activity assays shown were repeated at least twice with similar results. Moreover, most of the assays shown were repeated multiple times with enzymes from independent purifications with similar results. Representative experiments are shown. […]

[2] = biological target: T1, GST-C1 (PKCl 131-186) / His-PKCl Δ223 interaction (Homo sapiens, UniProt P41743); experiment: AlphaScreen interaction assay GST-C1 / His-PKCι Δ223; assay type: binding
T1 sequence (P41743 233-596): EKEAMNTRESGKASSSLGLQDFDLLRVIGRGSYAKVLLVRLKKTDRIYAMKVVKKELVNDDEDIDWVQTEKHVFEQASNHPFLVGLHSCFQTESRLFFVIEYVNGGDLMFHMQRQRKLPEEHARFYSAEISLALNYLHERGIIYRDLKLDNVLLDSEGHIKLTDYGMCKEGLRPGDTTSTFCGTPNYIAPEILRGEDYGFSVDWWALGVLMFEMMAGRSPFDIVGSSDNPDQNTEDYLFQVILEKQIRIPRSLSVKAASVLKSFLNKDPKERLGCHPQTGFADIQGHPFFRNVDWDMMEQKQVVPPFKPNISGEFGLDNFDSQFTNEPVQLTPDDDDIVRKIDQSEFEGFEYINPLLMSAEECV
Excerpt: In FIG. 11 evidence is provided that the C1 domain directly interacts with the catalytic domain of PKCz. A novel assay is set-up to investigate the interaction between the C1 domain constructs fused to GST and the catalytic domain of atypical PKCs containing a 6×His-tag. The assay is based on the alphascreen technology using a donor bead coupled to anti-GST antibodies (to bind the GST-PSR-C1 or GST-C1 constructs derived from PKCl) and Ni-NTA acceptor beads that bind to His-PKCl Δ223 (catalytic domain). The interaction is measured by the emission of light from the acceptor beads that happens when the two beads are in close proximity. GST-PSR-C1 readily interacted with His-PKCl Δ223. […] PIFtide and HM polypeptides are known to interact with the PIF-pocket of AGC kinases. Thus, the assay provides evidence that polypeptides binding to the PIF-pocket displace the interaction. In addition, small compounds that inhibit both atypical PKC isoforms and have been co-crystallized with PDK1-PKCz chimera (e.g. PS315), also displace the interaction between the C1 domain and the catalytic domain. Together, the data highlight the important role of the PIF-pocket in the regulation of PKCs and the need to develop tools to improve the methods for drug development to the PIF-pocket on AGC kinases. […] Indeed modeling of the pseudosubstrate into the substrate-binding site, allows the interaction of the C1 domain with the external part of the helix α-C that is a main component of the PIF-pocket (FIG. 13). The invention further provides a method for the screening for compounds that interact with the PIF-pocket on PKC isoforms, PDK1 chimeras or other AGC kinases, as well as kits for said method and compounds identified by said method (aspects (10) to (12) of the invention).
(§1) The AlphaScreen assay was performed according to the manufacturer's general protocol (Perkin Elmer). […] Proteins and beads were incubated in the dark for 1 h 30 min at room temperature and the emission of light from the acceptor beads was measured in the EnVision reader (Perkin Elmer) and analyzed using the EnVision manager software.

[3] = biological target: T2, GST-PSR-C1 (PKCl 100-185) / His-PKCl Δ223 interaction (Homo sapiens, UniProt P41743); experiment: AlphaScreen interaction assay GST-PSR-C1 / His-PKCι Δ223; assay type: binding
T2 sequence (P41743 233-596): T1 sequence (P41743 233-596)
Excerpt: In FIG. 11 evidence is provided that the C1 domain directly interacts with the catalytic domain of PKCz. A novel assay is set-up to investigate the interaction between the C1 domain constructs fused to GST and the catalytic domain of atypical PKCs containing a 6×His-tag. The assay is based on the alphascreen technology using a donor bead coupled to anti-GST antibodies (to bind the GST-PSR-C1 or GST-C1 constructs derived from PKCl) and Ni-NTA acceptor beads that bind to His-PKCl Δ223 (catalytic domain). The interaction is measured by the emission of light from the acceptor beads that happens when the two beads are in close proximity. GST-PSR-C1 readily interacted with His-PKCl Δ223. […] PIFtide and HM polypeptides are known to interact with the PIF-pocket of AGC kinases. Thus, the assay provides evidence that polypeptides binding to the PIF-pocket displace the interaction. […]
as §1

[4] = biological target: T3, PSRtide (biotin-KSIYRRGSRRWRKLYRA)
T3 chain: KSIYRRGSRRWRKLYRA

For `O=C(O)CC(Cc1nc2cc(Cl)ccc2[nH]1)c1ccc(Cl)cc1` (stereo not shown) [PS114], the “Effect on PDK1 activity” value [1] was “Activation”.

For “RTWALCGTPEYLAPEIILKK (activation loop of PKA)”, the “Effect on interaction of GST-C1 with His-PKCι Δ223” value [2] was “not”.

“VGNQLPFIGFT(P)YFRENL (VGNQLPFIGFTYFRENL) [ROCK-pHM, ROCK HM peptide phosphorylated at the HM phosphorylation site]” was tested, and the “Effect on interaction of GST-PSR-C1 with His-PKCι Δ223” value [3] was “not and not able to displace” and the “Effect on interaction of GST-C1 with His-PKCι Δ223” value [2] was “not and not able to displace”.

For VGNQLPFIGFTYFRENL (ROCK-HM), the “Effect on interaction of GST-PSR-C1 with His-PKCι Δ223” value [3] was “displaced; also recorded: strongly diminished” and the “Effect on interaction of GST-C1 with His-PKCι Δ223” value [2] was “displaced; also recorded: strongly diminished”.

B1: GST-PKCζ wild type (1-592) (protein)
chain: MPSRTGPKMEGSGGRVRLKAHYGGDIFITSVDAATTFEELCEEVRDMCRLHQQHPLTLKWVDSEGDPCTVSSQMELEEAFRLARQCRDEGLIIHVFPSTPEQPGLPCPGEDKSIYRRGARRWRKLYRANGHLFQAKRFNRRAYCGQCSERIWGLARQGYRCINCKLLVHKRCHGLVPLTCRKHMDSVMPSQEPPVDDKNEDADLPSEETDGIAYISSSRKHDSIKDDSEDLKPVIDGMDGIKISQGLGLQDFDLIRVIGRGSYAKVLLVRLKKNDQIYAMKVVKKELVHDDEDIDWVQTEKHVFEQASSNPFLVGLHSCFQTTSRLFLVIEYVNGGDLMFHMQRQRKLPEEHARFYAAEICIALNFLHERGIIYRDLKLDNVLLDADGHIKLTDYGMCKEGLGPGDTTSTFCGTPNYIAPEILRGEEYGFSVDWWALGVLMFEMMAGRSPFDIITDNPDMNTEDYLFQVILEKPIRIPRFLSVKASHVLKGFLNKDPKERLGCRPQTGFSDIKSHAFFRSIDWDLLEKKQALPPFQPQITDDYGLDNFDTQFTSEPVQLTPDDEDAIKRIDQSEFEGFEYINPLLLSTEESV
With B1 the “specific activity (phosphorylation of PSRtide by full length PKCζ)” value [4] was 60 to 80 nmol/mg/min.
